# Source: patent US20240228596A1 (VIB VZW, published 2024)
# Changes are numbered by the printed parent chain.
# B1: VHH3.89 (VHH)
# VHH: QVQLQESGGGLVQPGGSLRLSCAASGFTLDYYAIGWFREVPGKEREGLSRIDSSDGSTYYADSVKGRFTISRDNTKNIVYLQMNNLKPEDTAVYYCATDPIIQGRNWYWTGWGQGTQVTVSS
# B2: VHH72_h1_S56A (VHH)
# VHH: EVQLVESGGGLVQPGGSLRLSCAASGRTFSEYAMGWFRQAPGKEREFVATISWSGGATYYTDSVKGRFTISRDNAKNTVYLQMNSLRPEDTAVYYCAAAGLGTVVSEWDYDYDYWGQGTLVTVSS
# B3: KiH19 = VHH117/VHH83-10GS-KiH (bispecific antibody, V domains shown)
# V domain 1: DVQLQESGGGLVQPGGSLRLSCAASGKAVSISDMGWYRQPPGKQRELVATITKTGSTNYADSAQGRFTISRDNTKSAVYLEMKSLKPEDTAVYYCNAWLPYGMGPDYYGMELWGKGTQVTVSS
# V domain 2: DVQLQESGGGLVQPGDSLRLSCVLSGGVFTSYAMGWFRQAPGKEREFLAAITFNSDATYYADSVKGRFTISRDNAKNTAYLQMNSLKPEDTAVYSCAAGGNHYNPQYYHDYDKYDHWGQGTQVTVSS
# B4: VHH3.117 (VHH)
# VHH: B3 V domain 1 with D1Q
# Experiments:
# [1] = molecular target: T1, SARS-COV-2 RBD displayed on the surface of Saccharomyces cerevisiae cells (SARS-COV-2, UniProt P0DTC2 331-531); test: flow cytometry, yeast-displayed RBD
# [2] = molecular target: SARS-COV-2 Wuhan WT Spike_del18 on VSV-delG pseudotyped particles (SARS-COV-2, UniProt P0DTC2 14-1255); test: cell-based or functional assay
# [3] = molecular target: T1, SARS-COV-2 RBD displayed on the surface …; test: yeast cell ELISA (FIG. 27)
# [4] = molecular target: monomeric human Fc-fused SARS-COV-2_RBD-SD1 (SARS-COV-2, UniProt P0DTC2 319-591)
binder,measurement,setting,value
B1,binding result,[1],binds
B2,IC50 Mean VSV-dG-spike SARS-COV-2,[2],1.14 µg/mL
B3,binding result,[3],binds
B4,Kd,[4],0.445 nM
